The values below come from doi:10.1101/2020.03.10.985069 (2020).

Assay [1] concerns the target IL-10 variant B11, recombinant monomer (human (by the printed UniProt entry …, UniProt P22301 19-178)). The experiment in a line: SPR. For orientation: In SPR one partner is held on a chip, and binding of the other changes the refractive index at the surface.
For assay [2], the target named is IL-10 variant A11, recombinant monomer (human (by the printed UniProt entry …, UniProt P22301 19-178)). The experiment in a line: SPR.
For assay [3], the target named is high affinity IL-10 monomer R5A11M, recombinant (human (by the printed UniProt entry …, UniProt P22301 19-178)). Description: SPR.
For assay [4], the target named is A11/IL-10Rα complex (human (by the printed UniProt entry …, UniProt P22301 19-178; Q13651 22-235). Description: SPR; pre-bound to IL-10Rα.
The target in assay [5] is B11/IL-10Rα complex (human (by the printed UniProt entry …, UniProt P22301 19-178; Q13651 22-235). The experiment in a line: SPR; pre-bound to IL-10Rα.
Assay [6] has as its target R5A11/IL-10Rα complex (human (by the printed UniProt entry …, UniProt P22301 19-178; Q13651 22-235). Description: SPR; pre-bound to IL-10Rα.

B1: IL-10Rβ ectodomain (amino acids 20-220), biotinylated (receptor)
chain: MVPPPENVRMNSVNFKNILQWESPAFAKGNLTFTAQYLSYRIFQDKCMNTTLTECDFSSLSKYGDHTLRVRAEFADEHSDWVNITFCPVDDTIIGPPGMQVEVLADSLHMRFLAPKIENEYETWTMKNVYNSWTYNVQYWKNGTDEKFQITPQYDFEVLRNLEPWTTYCVQVRGFLPDRNKAGEWSEPVCEQTTHDETVPS
modifications: biotin on the biotin acceptor peptide (BirA ligase)
As a reminder, the Kd is the constant that tells how readily two partners part at equilibrium. On to B1, for which the Kd in assay [1] was determined as 9.4 µM; in assay [2] it was 2.4 µM; in assay [3], 8.9 µM; in assay [4] it was 0.023 µM; in assay [5], 0.065 µM; in assay [6], 0.1 µM.
